From paper PMC11574045, “A cofactor-induced repressive type of transcription factor condensation can be induced by synthetic peptides to suppress tumorigenesis” (The EMBO Journal, 2024)

B1: NPM2 (protein, UniProt Q86SE8 1-214, looked up)
Nucleoplasmin-2: MNLSSASSTEEKAVTTVLWGCELSQERRTWTFRPQLEGKQSCRLLLHTICLGEKAKEEMHRVEILPPANQEDKKMQPVTIASLQASVLPMVSMVGVQLSPPVTFQLRAGSGPVFLSGQERYEASDLTWEEEEEEEGEEEEEEEEDDEDEDADISLEEQSPVKQVKRLVPQKQASVAKKKKLEKEEEEIRASVRDKSPVKKAKATARAKKPGFKK
B2: NR0B1/DAX1 (protein, UniProt P51843 1-470, looked up)
Nuclear receptor subfamily 0 …: MAGENHQWQGSILYNMLMSAKQTRAAPEAPETRLVDQCWGCSCGDEPGVGREGLLGGRNVALLYRCCFCGKDHPRQGSILYSMLTSAKQTYAAPKAPEATLGPCWGCSCGSDPGVGRAGLPGGRPVALLYRCCFCGEDHPRQGSILYSLLTSSKQTHVAPAAPEARPGGAWWDRSYFAQRPGGKEALPGGRATALLYRCCFCGEDHPQQGSTLYCVPTSTNQAQAAPEERPRAPWWDTSSGALRPVALKSPQVVCEAASAGLLKTLRFVKYLPCFQVLPLDQQLVLVRNCWASLLMLELAQDRLQFETVEVSEPSMLQKILTTRRRETGGNEPLPVPTLQHHLAPPAEARKVPSASQVQAIKCFLSKCWSLNISTKEYAYLKGTVLFNPDVPGLQCVKYIQGLQWGTQQILSEHTRMTHQGPHDRFIELNSTLFLLRFINANVIAELFFRPIIGTVSMDDMMLEMLCTKI
B3: NR1F3/RORC (protein, UniProt P51449 1-518, looked up)
Nuclear receptor ROR-gamma: MDRAPQRQHRASRELLAAKKTHTSQIEVIPCKICGDKSSGIHYGVITCEGCKGFFRRSQRCNAAYSCTRQQNCPIDRTSRNRCQHCRLQKCLALGMSRDAVKFGRMSKKQRDSLHAEVQKQLQQRQQQQQEPVVKTPPAGAQGADTLTYTLGLPDGQLPLGSSPDLPEASACPPGLLKASGSGPSYSNNLAKAGLNGASCHLEYSPERGKAEGRESFYSTGSQLTPDRCGLRFEEHRHPGLGELGQGPDSYGSPSFRSTPEAPYASLTEIEHLVQSVCKSYRETCQLRLEDLLRQRSNIFSREEVTGYQRKSMWEMWERCAHHLTEAIQYVVEFAKRLSGFMELCQNDQIVLLKAGAMEVVLVRMCRAYNADNRTVFFEGKYGGMELFRALGCSELISSIFDFSHSLSALHFSEDEIALYTALVLINAHRPGLQEKRKVEQLQYNLELAFHHHLCKTHRQSILAKLPPKGKLRSLCSQHVERLQIFQHLHPIVVQAAFPPLYKELFSTETESPVGLSK
B4: NKX2-8 (protein, UniProt O15522 1-239, looked up)
Homeobox protein Nkx-2.8: MATSGRLSFTVRSLLDLPEQDAQHLPRREPEPRAPQPDPCAAWLDSERGHYPSSDESSLETSPPDSSQRPSARPASPGSDAEKRKKRRVLFSKAQTLELERRFRQQRYLSAPEREQLASLLRLTPTQVKIWFQNHRYKLKRARAPGAAESPDLAASAELHAAPGLLRRVVVPVLVRDGQPCGGGGGGEVGTAAAQEKCGAPPAAACPLPGYPAFGPGSALGLFPAYQHLASPALVSWNW
B5: NKX2-6 (protein, UniProt A6NCS4 1-301, looked up)
Homeobox protein Nkx-2.6: MLLSPVTSTPFSVKDILRLERERSCPAASPHPRVRKSPENFQYLRMDAEPRGSEVHNAGGGGGDRKLDGSEPPGGPCEAVLEMDAERMGEPQPGLNAASPLGGGTRVPERGVGNSGDSVRGGRSEQPKARQRRKPRVLFSQAQVLALERRFKQQRYLSAPEREHLASALQLTSTQVKIWFQNRRYKCKRQRQDKSLELAGHPLTPRRVAVPVLVRDGKPCLGPGPGAPAFPSPYSAAVSPYSCYGGYSGAPYGAGYGTCYAGAPSGPAPHTPLASAGFGHGGQNATPQGHLAATLQGVRAW
B6: NR0B2/SHP (protein, UniProt Q15466 1-257, looked up)
Nuclear receptor subfamily 0 …: MSTSQPGACPCQGAASRPAILYALLSSSLKAVPRPRSRCLCRQHRPVQLCAPHRTCREALDVLAKTVAFLRNLPSFWQLPPQDQRRLLQGCWGPLFLLGLAQDAVTFEVAEAPVPSILKKILLEEPSSSGGSGQLPDRPQPSLAAVQWLQCCLESFWSLELSPKEYACLKGTILFNPDVPGLQAASHIGHLQQEAHWVLCEVLEPWCPAAQGRLTRVLLTASTLKSIPTSLLGDLFFRPIIGDVDIAGLLGDMLLLR
B7: NKX6-2 (protein, UniProt Q9C056 1-277, looked up)
Homeobox protein Nkx-6.2: MDTNRPGAFVLSSAPLAALHNMAEMKTSLFPYALQGPAGFKAPALGGLGAQLPLGTPHGISDILGRPVGAAGGGLLGGLPRLNGLASSAGVYFGPAAAVARGYPKPLAELPGRPPIFWPGVVQGAPWRDPRLAGPAPAGGVLDKDGKKKHSRPTFSGQQIFALEKTFEQTKYLAGPERARLAYSLGMTESQVKVWFQNRRTKWRKRHAVEMASAKKKQDSDAEKLKVGGSDAEDDDEYNRPLDPNSDDEKITRLLKKHKPSNLALVSPCGGGAGDAL
B8: ATF3 (protein, UniProt P18847 1-181, looked up)
Cyclic AMP-dependent …: MMLQHPGQVSASEVSASAIVPCLSPPGSLVFEDFANLTPFVKEELRFAIQNKHLCHRMSSALESVTVSDRPLGVSITKAEVAPEEDERKKRRRERNKIAAAKCRNKKKEKTECLQKESEKLESVNAELKAQIEELKNEKQHLIYMLNLHRPTCIVRAQNGRTPEDERNLFIQQIKEGTLQS
B9: NFX1 (protein, UniProt Q12986 1-1120, looked up)
Transcriptional repressor …: MAEAPPVSGTFKFNTDAAEFIPQEKKNSGLNCGTQRRLDSNRIGRRNYSSPPPCHLSRQVPYDEISAVHQHSYHPSGSKPKSQQTSFQSSPCNKSPKSHGLQNQPWQKLRNEKHHIRVKKAQSLAEQTSDTAGLESSTRSESGTDLREHSPSESEKEVVGADPRGAKPKKATQFVYSYGRGPKVKGKLKCEWSNRTTPKPEDAGPESTKPVGVFHPDSSEASSRKGVLDGYGARRNEQRRYPQKRPPWEVEGARPRPGRNPPKQEGHRHTNAGHRNNMGPIPKDDLNERPAKSTCDSENLAVINKSSRRVDQEKCTVRRQDPQVVSPFSRGKQNHVLKNVETHTGSLIEQLTTEKYECMVCCELVRVTAPVWSCQSCYHVFHLNCIKKWARSPASQADGQSGWRCPACQNVSAHVPNTYTCFCGKVKNPEWSRNEIPHSCGEVCRKKQPGQDCPHSCNLLCHPGPCPPCPAFMTKTCECGRTRHTVRCGQAVSVHCSNPCENILNCGQHQCAELCHGGQCQPCQIILNQVCYCGSTSRDVLCGTDVGKSDGFGDFSCLKICGKDLKCGNHTCSQVCHPQPCQQCPRLPQLVRCCPCGQTPLSQLLELGSSSRKTCMDPVPSCGKVCGKPLPCGSLDFIHTCEKLCHEGDCGPCSRTSVISCRCSFRTKELPCTSLKSEDATFMCDKRCNKKRLCGRHKCNEICCVDKEHKCPLICGRKLRCGLHRCEEPCHRGNCQTCWQASFDELTCHCGASVIYPPVPCGTRPPECTQTCARVHECDHPVYHSCHSEEKCPPCTFLTQKWCMGKHEFRSNIPCHLVDISCGLPCSATLPCGMHKCQRLCHKGECLVDEPCKQPCTTPRADCGHPCMAPCHTSSPCPVTACKAKVELQCECGRRKEMVICSEASSTYQRIAAISMASKITDMQLGGSVEISKLITKKEVHQARLECDEECSALERKKRLAEAFHISEDSDPFNIRSSGSKFSDSLKEDARKDLKFVSDVEKEMETLVEAVNKGKNSKKSHSFPPMNRDHRRIIHDLAQVYGLESVSYDSEPKRNVVVTAIRGKSVCPPTTLTGVLEREMQARPPPPIPHHRHQSDKNPGSSNLQKITKEPIIDYFDVQD
B10: NKX2.5 (protein, UniProt P52952 1-324, looked up)
Homeobox protein Nkx-2.5: MFPSPALTPTPFSVKDILNLEQQQRSLAAAGELSARLEATLAPSSCMLAAFKPEAYAGPEAAAPGLPELRAELGRAPSPAKCASAFPAAPAFYPRAYSDPDPAKDPRAEKKELCALQKAVELEKTEADNAERPRARRRRKPRVLFSQAQVYELERRFKQQRYLSAPERDQLASVLKLTSTQVKIWFQNRRYKCKRQRQDQTLELVGLPPPPPPPARRIAVPVLVRDGKPCLGDSAPYAPAYGVGLNPYGYNAYPAYPGYGGAACSPGYSCTAAYPAGPSPAQPATAAANNNFVNFGVGDLNAVQSPGIPQSNSGVSTLHGIRAW
B11: NFYB (protein, UniProt P25208 1-207, looked up)
Nuclear transcription factor …: MTMDGDSSTTDASQLGISADYIGGSHYVIQPHDDTEDSMNDHEDTNGSKESFREQDIYLPIANVARIMKNAIPQTGKIAKDAKECVQECVSEFISFITSEASERCHQEKRKTINGEDILFAMSTLGFDSYVEPLKLYLQKFREAMKGEKGIGGAVTATDGLSEELTEEAFTNQLPAGLITTDGQQQNVMVYTTSYQQISGVQQIQFS
B12: NF-YB (protein, UniProt P25208 1-207, looked up)
Nuclear transcription factor …: B11 Nuclear transcription factor …
B13: NKX2-2 (protein, UniProt O95096 1-273, looked up)
Homeobox protein Nkx-2.2: MSLTNTKTGFSVKDILDLPDTNDEEGSVAEGPEEENEGPEPAKRAGPLGQGALDAVQSLPLKNPFYDSSDNPYTRWLASTEGLQYSLHGLAAGAPPQDSSSKSPEPSADESPDNDKETPGGGGDAGKKRKRRVLFSKAQTYELERRFRQQRYLSAPEREHLASLIRLTPTQVKIWFQNHRYKMKRARAEKGMEVTPLPSPRRVAVPVLVRDGKPCHALKAQDLAAATFQAGIPFSAYSAQSLQHMQYNAQYSSASTPQYPTAHPLVQAQQWTW
B14: NKX6-3 (protein, UniProt A6NJ46 1-265, looked up)
Homeobox protein Nkx-6.3: MESNLQGTFLLNNTPLAQFPEMKAPVCQYSVQNSFYKLSPPGLGPQLAAGTPHGITDILSRPVAAPNNSLLSGYPHVAGFGGLSSQGVYYSPQVGNFSKAGNEYPTRTRNCWADTGQDWRGGRQCSNTPDPLSDSIHKKKHTRPTFTGHQIFALEKTFEQTKYLAGPERARLAYSLGMTESQVKVWFQNRRTKWRKKSALEPSSSTPRAPGGAGAGAGGDRAPSENEDDEYNKPLDPDSDDEKIRLLLRKHRAAFSVLSLGAHSV
B15: NR1H2/LXRB (protein, UniProt P55055 1-460, looked up)
Oxysterols receptor LXR-beta: MSSPTTSSLDTPLPGNGPPQPGAPSSSPTVKEEGPEPWPGGPDPDVPGTDEASSACSTDWVIPDPEEEPERKRKKGPAPKMLGHELCRVCGDKASGFHYNVLSCEGCKGFFRRSVVRGGARRYACRGGGTCQMDAFMRRKCQQCRLRKCKEAGMREQCVLSEEQIRKKKIRKQQQESQSQSQSPVGPQGSSSSASGPGASPGGSEAGSQGSGEGEGVQLTAAQELMIQQLVAAQLQCNKRSFSDQPKVTPWPLGADPQSRDARQQRFAHFTELAIISVQEIVDFAKQVPGFLQLGREDQIALLKASTIEIMLLETARRYNHETECITFLKDFTYSKDDFHRAGLQVEFINPIFEFSRAMRRLGLDDAEYALLIAINIFSADRPNVQEPGRVEALQQPYVEALLSYTRIKRPQDQLRFPRMLMKLVSLRTLSSVHSEQVFALRLQDKKLPPLLSEIWDVHE

System: HEK293FT cells transfected with TF library
Assay: Screening of TF condensates based on fluorescent puncta
Type: cell-based
Conditions: Figure 1B numerical data; TF library screen, one value per transcriptional factor
Method in brief: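 Each TF construct was introduced into HEK293FT cells using PEI at 4.8 μg/ml; glucose deprivation versus normal medium lasted 12 h. Automated confocal-style imaging of tagged TF staining, 50 fields per well, gave the puncta data.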

Row | Molecule | Z score of condensed fraction
1 | B1 | 1.0628
2 | B2 | -0.574
3 | B3 | 0.1658
4 | B4 | -0.6353
5 | B5 | -0.7176
6 | B6 | -0.8477
7 | B7 | -0.6325
8 | B8 | -0.2156
9 | B9 | -0.8733
10 | B10 | -0.3246
11 | B11 | 0.9401
12 | B12 | 0.001922
13 | B13 | -0.1567
14 | B14 | -0.571
15 | B15 | 0.2806
